Tests used:
[1] = biological target: c-Myc-containing recombinant protein; test: SPR; fold change of KD, WT is itself the reference
[2] = biological target: c-Myc-containing recombinant protein; test: SPR (Biacore T200), c-Myc-containing recombinant protein immobilised, soluble Fab injected at 5-80 nM, 1:1 Langmuir fit

Fold change [1]: 1 fold
Kd [2]: 110 nM
koff [2]: 0.018 s⁻¹
kon [2]: 160000 M⁻¹ s⁻¹
B1: parental murine Fab of aM (murine monoclonal antibody raised against c-Myc peptide) (Fab, V domains shown)
VH: QIQLVQSGPELKKPGETVRISCKASGYTFTTAGMQWVQKMPGKGLKWIGWINTHSGVPKYAEDFKGRFAFSLETSASTAYLQMTNLNNEDTATYFCARGYGKGGYFAMDYWGQGTSVTVSS
VL: DVVMTQIPFSLPVSLGDQASISCRSSQSLVHSNGNTYLHWYVQKPGQSPKLLIYKVSNRFSGVPDRFSGSGSGTYFTLKISRVEAEDLGVYFCSQSTRVPWTFGGGTKLEIK
